Reference: patent publication US20160084820A1, “METHODS OF TREATING OR PREVENTING PERIODONTITIS AND DISEASES ASSOCIATED WITH PERIODONTITIS” (priority 2010, published 2016)
Like-named read-outs stand apart in the source and are kept apart here.

Key:
[1] = tested on: mouse peritoneal macrophages; assay: P. gingivalis phagocytosis and receptor expression by flow cytometry; type: cell-based
Protocol: First, experiments were performed to determine the effect of C5a (50 nM) or C3a (200 nM) on P. gingivalis phagocytosis by unprimed or IFN-γ-primed mouse peritoneal macrophages (FIG. 6A). The phagocytic index was calculated following a 30-min incubation using the following formula: % positive cells for fluorescently labeled P. gingivalis×MFI/100 (extracellular fluorescence was quenched prior to flow cytometry). Mouse macrophages were incubated at 37° C. for 30 min (B) or 24 hours (C) with medium, C5a (50 nM) only, or P. gingivalis (MOI=10:1) with or without C5a (50 nM). The expression levels of the indicated receptors, which coordinately mediate P. gingivalis uptake, were determined by flow cytometry after cell staining with appropriate fluorescently labeled antibodies (FIGS. 6B and 6C). The 30-min time point was examined to determine possible induced surface expression of preformed receptors from intracellular pools. […] Mouse-specific mAbs to TLR2 (clone 6C2), TLR1 (TR23), CD14 (Sa2-8), CD11b (M1/70), and CD18 (M18/2) were obtained from e-Bioscience.

macrophages [2] = assay: Intracellular Ca2+ mobilization (Indo-1 AM), macrophages; type: cell-based, mouse; conditions: 50 nM
IL-6 production = assay: IL-6 ELISA in P. gingivalis-stimulated macrophages; type: cell-based, mouse; conditions: C5a 50 nM, 5 or 24 hours
Protocol: Mouse peritoneal macrophages were incubated for 5 or 24 hours at 37° C. with P. gingivalis (Pg; MOI=10:1) in the presence or absence of C5a (50 nM), and culture supernatants were assayed for IL-6 by ELISA.

[3] = tested on: phagocytosed P. gingivalis in mouse peritoneal macrophages; type: cell-based, P. gingivalis ATCC 33277; conditions: for promoting intracellular survival, C5a vs C5a^desArg: 24 h
Protocol: The viability of phagocytosed P. gingivalis was monitored by an antibiotic protection-based intracellular survival assay, as previously described (Wang et al., 2007, J. Immunol., 179:2349-58). Briefly, mouse peritoneal macrophages were allowed to phagocytose P. gingivalis (MOI=10:1; 5×10^6 bacteria and 5×10^5 cells) for […] at 37° C. This was followed by washing to remove extracellular nonadherent bacteria and 1-hour treatment with antibiotics (300 μg/ml gentamicin and 200 μg/ml metronidazole) to eliminate residual or extracellular adherent bacteria. The macrophages were subsequently cultured overnight (for a total of 24 hours) or for 48 hours Immediately after, the macrophages were washed and lysed in sterile distilled water, and viable counts of internalized P. gingivalis were determined by plating serial dilutions of macrophage lysates on blood agar plates subjected to anaerobic culture.
The viability of phagocytosed P. gingivalis was monitored by an antibiotic protection-based intracellular survival assay, as previously described (Wang et al., 2007, J. Immunol., 179:2349-58)). Briefly, mouse peritoneal macrophages were allowed to phagocytose P. gingivalis (at a MOI=10:1; 5×10^6 bacteria and 5×10^5 macrophages) for 30 min at 37° C. This was followed by washing to remove extracellular nonadherent bacteria and 1-hour treatment with antibiotics (300 μg/ml gentamicin and 200 μg/ml metronidazole) to eliminate residual or extracellular adherent bacteria. The macrophages were subsequently cultured overnight for a total of 24 hours Immediately after, the macrophages were washed and lysed in sterile distilled water and viable counts of internalized P. gingivalis were determined by plating serial dilutions of macrophage lysates on blood agar plates subjected to anaerobic culture.

intracellular cAMP = assay: cAMP enzyme immunoassay in P. gingivalis-stimulated macrophages; type: cell-based, mouse; conditions: for elevating cAMP, C5a vs C5a^desArg: 1 h
human neutrophils = assay: In vitro killing of Pg and oxidative burst by human neutrophils; type: cell-based; conditions: presence of C5a
Protocol: (§1) To directly implicate neutrophils in this evasion mechanism, in vitro experiments were performed. It was shown that the ability of mouse or human neutrophils (purified from peripheral blood5 collected under IRB approval) to kill Pg was inhibited in the presence of C5a in a C5aR-dependent manner, whereas their oxidative burst response was enhanced.

IL-12p70 production = assay: IL-12p70 induction in IFN-gamma-primed macrophages, ELISA; type: cell-based, mouse
Protocol: Induction of nitric oxide production was assessed by measuring the amount of NO2− (stable metabolite of nitric oxide) in stimulated culture supernatants using a Griess reaction-based assay kit (R&D Systems), as previously performed (Hajishengallis et al., 2008, PNAS USA, 105:13532-7). Levels of cAMP in activated cell extracts were measured using a cAMP enzyme immunoassay kit (Cayman Chemical) (Liang et al., 2007, J. Immunol., 178:4811-9). C5a-induced intracellular calcium mobilization was monitored in cells (4×10^6) loaded with 1 μM Indo 1-AM in the presence of 1 μM pluronic acid, as previously described (Ali et al., 1993, J. Biol. Chem., 268:24247-54). Calcium traces were recorded in a Perkin-Elmer fluorescence spectrometer (Model 650-19) with an excitation wavelength of 355 nm and an emission wavelength of 405 nm. Induction of cytokine production in activated cell culture supernatants or in the peritoneal fluid of infected mice was determined by ELISA using kits from eBioscience or Cell Sciences. C5a levels were measured by sandwich ELISA, employing a pair of capture and biotinylated anti-05a mAbs (BD Pharmingen), according to the manufacturer's protocol.
Whether C5a inhibits P. gingivalis-induced IL-12p70 in peritoneal macrophages was investigated. Since macrophages are generally poor producers of IL-12p70 in vitro unless primed with IFN-gamma, macrophages used in these experiments were primed with IFN-gamma (0.1 μg/ml). […] The host TLR response against P. gingivalis is predominantly mediated by TLR2, both in vitro and in vivo. Therefore, whether C5a-mediated inhibition of P. gingivalis-induced IL-12p70 could involve a C5aR-TLR2 crosstalk additionally was examined.

mouse neutrophils = assay: In vitro killing of Pg and oxidative burst by mouse neutrophils; type: cell-based; conditions: presence of C5a
Protocol: as §1

[4] = tested on: GSK3β Ser9-phosphorylation; assay: GSK3β Ser9 phosphorylation ELISA in macrophages; type: cell-based, mouse; conditions: C5a 50 nM without Pg
Protocol: PKA activity in lysates of activated cells was determined using the ProFluor™ PKA assay, according to the instructions of the manufacturer (Promega) (Hajishengallis et al., 2008, PNAS USA, 105:13532-7). Phosphorylation of GSK313 on Ser9 and total GSK3β were monitored using FACE™ GSK3β ELISA kits (Active Motif).

neutrophils = assay: Intracellular Ca2+ mobilization (Indo-1 AM), neutrophils; type: cell-based, mouse
nitric oxide production = assay: NO2− (nitric oxide) production, Griess reaction-based assay, macrophages; type: cell-based, mouse; conditions: for inhibiting nitric oxide, C5a vs C5a^desArg: 24 h
[5] = tested on: negative regulators of TLR signaling; assay: Expression of negative regulators of TLR signaling, quantitative real-time PCR; type: cell-based, mouse; conditions: C5a 50 nM, 4 hours
Protocol: Gene expression in resting or activated mouse macrophages was quantified using quantitative real-time PCR. Briefly, RNA was extracted from cell lysates using the PerfectPure RNA cell kit (5 Prime, Fisher) and quantified by spectrometry at 260 and 280 nm. The RNA was reverse-transcribed using the High-Capacity cDNA Archive kit (Applied Biosystems) and quantitative real-time PCR with cDNA was performed using the ABI 7500 Fast System, according to the manufacturer's protocol (Applied Biosystems). TaqMan probes, sense primers, and antisense primers for expression of a house-keeping gene (GAPDH) or iNOS (or the genes shown in FIG. 7) were purchased from Applied Biosystems.
Supplemental experiments also examined the relative expression of negative regulators of TLR signaling in P. gingivalis-stimulated macrophages in the absence or presence of C5a. Mouse macrophages were stimulated with P. gingivalis (Pg; at a MOI=10:1) or medium control, in the presence or absence of 50 nM of C5a, and incubated for 4 hours. Quantitative real-time PCR (ABI 7500 Fast System; Applied Biosystems) was used to determine mRNA expression levels for the indicated molecules (normalized against GAPDH mRNA levels), which are shown in FIG. 7.

macrophages [6] = tested on: macrophages
Protocol: Thioglycollate-elicited macrophages were isolated from the peritoneal cavity of wild-type or mice deficient in TLR2, TLR4, C3aR, or C5aR (The Jackson Laboratory) (Zhang et al., 2007, Blood, 110:228-36; Gajishengallis et al., 2006, Cell. Microbiol., 8:1557-70), in compliance with established federal guidelines and institutional policies. The macrophages were cultured at 37° C. and 5% CO2 in RPMI 1640 (InVitrogen) supplemented with 10% heat-inactivated FBS, 2 mM L-glutamine, 100 units/ml penicillin G, 100 μg/ml streptomycin, and 0.05 mM 2-ME.
Thioglycollate-elicited macrophages were isolated from the peritoneal cavity of wild-type or mice deficient in TLR2 or C5aR (Hajishengallis et al., 2006, Cell. Microbiol., 8:1557-70; Zhang et al., 2007, Blood, 110:228-36) in compliance with established institutional policies and federal guidelines. Both BALB/c and C57BL/6 C5aR-deficient mice were used (with their respective wild-type controls): The BALB/c mice were obtained from The Jackson Laboratory; and the C57BL/6 C5aR-deficient mice were originally provided by Dr. Craig Gerard (Harvard Medical School) and are now housed at The Jackson Laboratory. The TLR2-deficient mice were originally C57BL/6 (The Jackson Laboratory) and were backcrossed for nine generations onto a BALB/c genetic background before their use in these studies. […]

B1: C5a: mouse C5a anaphylatoxin, purchased from Cell Sciences or R&D Systems (protein)
chain: NLHLLRQKIEEQAAKYKHSVPKKCCYDGARVNFYETCEERVARVTIGPLCIRAFNECCTIANKIRKESPHKPVQLGR
B1 was tested. Which P. gingivalis phagocytosis ([1]; C5a 50 nM or C3a 200 nM, 30-min incubation) did it give?
Its P. gingivalis phagocytosis is “not significantly affected”.

And the “expression of macrophage receptors CD14, TLR2, CD11b/CD18” value ([1]; C5a 50 nM, 30 min or 24 hours)?
Its value is “essentially unaffected”.

And the “intracellular Ca^2+ mobilization” value (macrophages [2])?
Its value is “comparable intracellular Ca^2+ mobilization”.

And the “IL-6 production in P. gingivalis-stimulated macrophages” value (IL-6 production)?
Its value is “up-regulation of IL-6 production”.

And the “promoting intracellular survival, C5a vs C5a^desArg” value ([3]; 10 nM)?
Its value is “stronger effects than C5a^desArg”.

What about the “intracellular survival of P. gingivalis in macrophages (viable counts of internalized bacteria)” value ([3]; Pg MOI=10:1, C5a 50 nM or C3a 200 nM, 24 or 48 hours post-infection) of the same molecule?
The value was “significantly promoted”.

What about the “Pg CFU with C5a in the absence of inhibitors” value ([3]; macrophages with Pg and C5a, 24 hours postinfection, FIG. 2D dashed line) of the same molecule?
The value was 13.7±2.7 [×10^4] CFU.

What about the “elevating cAMP, C5a vs C5a^desArg” value (intracellular cAMP; 10 nM) of the same molecule?
Its value is “stronger effects than C5a^desArg”.

What about the “elevation of intracellular cAMP, C5a + P. gingivalis relative to P. gingivalis alone” value (intracellular cAMP; C5a 50 nM, Pg MOI=10:1) of the same molecule?
Its value is greater than 3 fold.

What about the “cAMP difference AMD+C5a+Pg vs. AMD+Pg” value (intracellular cAMP; CXCR4 blockade by AMD3100 1 μg/ml) of the same molecule?
The value was greater than 6 fold.

What about the “cAMP response to C5a by itself” value (intracellular cAMP; macrophages without P. gingivalis) of the same molecule?
The value was “failed to induce a cAMP response”.

What about the “ability of neutrophils to kill Pg” value (human neutrophils) of the same molecule?
The value was “inhibited”.

What about the oxidative burst response (human neutrophils) of the same molecule?
Its oxidative burst response is “enhanced”.

What about the “inhibition of P. gingivalis-induced IL-12p70” value (IL-12p70 production; 10 nM) of the same molecule?
The value was “already effective”.

And the “P. gingivalis-induced IL-12p70 production” value (IL-12p70 production; C5a 50 nM, 24 h)?
Its value is “significantly inhibited”.

What about the “LPS-induced IL-12p70 production” value (IL-12p70 production; C5a 50 nM, E. coli LPS 0.1 μg/ml, 24 h) of the same molecule?
Its value is “significantly inhibited”.

What about the “ability of neutrophils to kill Pg” value (mouse neutrophils) of the same molecule?
Its value is “inhibited”.

And the oxidative burst response (mouse neutrophils)?
Its oxidative burst response is “enhanced”.

And the “Ser9-phosphorylation of GSK3β by C5a itself” value [4]?
Its value is “only slightly increased”.

What about the “intracellular Ca^2+ mobilization” value (neutrophils) of the same molecule?
The value was “only C5a was active”.

And the “inhibiting nitric oxide, C5a vs C5a^desArg” value (nitric oxide production; 10 nM)?
The value was “stronger effects than C5a^desArg”.

What about the “production of nitric oxide in P. gingivalis-stimulated macrophages” value (nitric oxide production; C5a 50 nM, unprimed or IFN-gamma-primed, 24 hours) of the same molecule?
Its value is “significantly inhibited”.

And the “expression of negative regulators of TLR signaling with P. gingivalis and C5a” value [5]?
Its value is “no synergistic or additive effects”.

And the “cell viability compared to medium-only treatments” value (macrophages [6])?
Its value is “None of the experimental treatments, including treatments with C5a up to 100 nM, affected cell viability”.

B2: C5a^desArg: desarginated form of mouse C5a (protein)
chain: NLHLLRQKIEEQAAKYKHSVPKKCCYDGARVNFYETCEERVARVTIGPLCIRAFNECCTIANKIRKESPHKPVQLG
For B2, which “intracellular Ca^2+ mobilization” value (macrophages [2]) is on record?
The value was “comparable intracellular Ca^2+ mobilization”.

And the “promoting intracellular survival, C5a vs C5a^desArg” value ([3]; 50 nM)?
Its value is “no significant differences”.

What about the “elevating cAMP, C5a vs C5a^desArg” value (intracellular cAMP; 50 nM) of the same molecule?
The value was “no significant differences”.

What about the “inhibition of P. gingivalis-induced IL-12p70” value (IL-12p70 production; 10 nM) of the same molecule?
Its value is “not”.

What about the “inhibition of P. gingivalis-induced IL-12p70” value (IL-12p70 production; 50 nM) of the same molecule?
The value was “significant (p<0.05) inhibition”.

What about the “intracellular Ca^2+ mobilization” value (neutrophils) of the same molecule?
Its value is “only C5a was active”.

And the “inhibiting nitric oxide, C5a vs C5a^desArg” value (nitric oxide production; 50 nM)?
The value was “no significant differences”.
